Experiment in all cases: FACS
In experiment [1] the target is HK68 H3m2-cl9 + 10 + 11 + 12 (influenza A virus H3N2) (UniProt Q91MA7).
Experiment [2] has as its target HK68 H3m2-cl9 + 10 + 11 + 12-GCN4 (influenza A virus H3N2) (UniProt Q91MA7).
Experiment [3] addresses HK68 H3m2-cl9 + 10 + 11 + 12-tri (influenza A virus H3N2) (UniProt Q91MA7).
Experiment [4] concerns the target HK68 H3m2-cl9 + 10 + 12 (influenza A virus H3N2) (UniProt Q91MA7).
Experiment [5] concerns the target mini2 cluster11 + 5 (A/Brisbane/59/2007) (influenza A virus H1N1) (UniProt A8C8J4).
Experiment [6] concerns the target miniHA (A/Brisbane/59/2007) (influenza A virus H1N1) (UniProt A8C8J4).
Experiment [7] has as its target miniHA cluster1 (A/Brisbane/59/2007) (influenza A virus H1N1) (UniProt A8C8J4).
The target in experiment [8] is H3-mini2-cl9 + 10 + 11 + 12-GCN4 (influenza A virus H3N2) (UniProt O11283).

In the case of CR8043 (antibody), the % positive cells in experiment [1], in experiment [2], in experiment [3] and in experiment [4] was above 15% throughout.
For CR6254 (antibody), the figures for the MFI relative to full-length HA in experiment [5] and in experiment [7] were 50% and 10%, respectively. The figures for the % positive cells in experiment [6] and in experiment [7] were 1 to 3% and 60%, respectively.
With CR8020 (antibody), the % positive cells in experiment [8] was 60%; in experiment [1], above 15%; in experiment [2] it was above 15%; in experiment [3] it was above 15%; in experiment [4], above 15%.
For the substance CR6328 (antibody), the % positive cells in experiment [6] was 1 to 3%; in experiment [7] it was 60%.
